The target in the assay is FLAG® HA BAP fusion protein [phosphatase: P00634]. The experiment in a line: immunoprecipitation of purified FLAG HA BAP in 3 extraction buffers, blot with anti-HA-peroxidase.

Substance ANTI-FLAG® affinity resin (antibody) gave a protein recovery (% of input protein) (% of input protein) greater than 70.

(Values after US20080039616A1.)
